Publication PMC6340890, “Transcriptional mechanism of IRF8 and PU.1 governs microglial activation in neurodegenerative condition”

Legend:
IRF8;PU.1 [1] = biological target: T1, IRF8;PU.1 (Mus musculus;Mus musculus, UniProt P23611;P17433 1-424;1-272, |); test: EMSA; synergistic; supershifted by anti-IRF8 and by anti-PU.1, not by control IgG; LightShift Chemiluminescent EMSA Kit; buffer, salt and pH not stated; supershift incubation 4 °C, 20 min; settings: protein: recombinant;recombinant; tags: Flag;Flag; copies: 1;1; label: 5'-biotin (both strands)
IRF8;PU.1 [2] = biological target: T1, IRF8;PU.1; test: EMSA; synergistic; LightShift Chemiluminescent EMSA Kit; buffer, salt and pH not stated; supershift incubation 4 °C, 20 min; settings: protein: recombinant;recombinant; tags: Flag;Flag; copies: 1;1; label: 5'-biotin (both strands)

T1 sequence (P23611 whole entry, chain 1 of 2, other chains not shown): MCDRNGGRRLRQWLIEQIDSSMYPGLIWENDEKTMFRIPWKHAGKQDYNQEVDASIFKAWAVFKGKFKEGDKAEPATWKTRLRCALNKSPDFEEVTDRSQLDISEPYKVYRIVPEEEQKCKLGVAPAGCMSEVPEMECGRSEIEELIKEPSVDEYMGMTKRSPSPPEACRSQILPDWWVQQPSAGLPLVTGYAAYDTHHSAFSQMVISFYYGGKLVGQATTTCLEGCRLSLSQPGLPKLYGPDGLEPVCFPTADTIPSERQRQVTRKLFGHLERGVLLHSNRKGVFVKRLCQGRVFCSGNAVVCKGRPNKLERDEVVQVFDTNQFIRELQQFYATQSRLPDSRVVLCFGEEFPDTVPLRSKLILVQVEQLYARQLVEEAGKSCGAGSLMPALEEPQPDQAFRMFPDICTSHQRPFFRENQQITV

Row | Binder | binding result (IRF8;PU.1 [1]) | binding result (IRF8;PU.1 [2])
1 | Tak1 probe (dsDNA) DNA 1: CCTTCCATGGTTTCAGTTCCTCTTAAGGGA DNA 2: TCCCTTAAGAGGAACTGAAACCATGGAAGG | binds | –
2 | Nfkb1 probe (dsDNA) DNA 1: TCCCCCCTGGTTTCCCTTCCTGTAAATACA DNA 2: TGTATTTACAGGAAGGGAAACCAGGGGGGA | – | binds
3 | Ikbkb probe (dsDNA) DNA 1: CCGTCCTCAGTTTCACTTCCTGTCAGTGCT DNA 2: AGCACTGACAGGAAGTGAAACTGAGGACGG | – | binds
4 | Ripk2 probe (dsDNA) DNA 1: ACAGTCTTACTTTCACTTCCTGAATTCATT DNA 2: AATGAATTCAGGAAGTGAAAGTAAGACTGT | binds | –
